Measurements taken from patent publication US20260250418A1 (BIOCYTOGEN PHARMACEUTICALS BEIJING, published 2026).
Where a chain is given by its changes, count along the chain named.

T1: dog HER3 on CHO-dHER3 cells (dog, UniProt P21860 20-1342 (human entry))
T1 construct: CHO-S cells transfected with dHER3
T1 chain: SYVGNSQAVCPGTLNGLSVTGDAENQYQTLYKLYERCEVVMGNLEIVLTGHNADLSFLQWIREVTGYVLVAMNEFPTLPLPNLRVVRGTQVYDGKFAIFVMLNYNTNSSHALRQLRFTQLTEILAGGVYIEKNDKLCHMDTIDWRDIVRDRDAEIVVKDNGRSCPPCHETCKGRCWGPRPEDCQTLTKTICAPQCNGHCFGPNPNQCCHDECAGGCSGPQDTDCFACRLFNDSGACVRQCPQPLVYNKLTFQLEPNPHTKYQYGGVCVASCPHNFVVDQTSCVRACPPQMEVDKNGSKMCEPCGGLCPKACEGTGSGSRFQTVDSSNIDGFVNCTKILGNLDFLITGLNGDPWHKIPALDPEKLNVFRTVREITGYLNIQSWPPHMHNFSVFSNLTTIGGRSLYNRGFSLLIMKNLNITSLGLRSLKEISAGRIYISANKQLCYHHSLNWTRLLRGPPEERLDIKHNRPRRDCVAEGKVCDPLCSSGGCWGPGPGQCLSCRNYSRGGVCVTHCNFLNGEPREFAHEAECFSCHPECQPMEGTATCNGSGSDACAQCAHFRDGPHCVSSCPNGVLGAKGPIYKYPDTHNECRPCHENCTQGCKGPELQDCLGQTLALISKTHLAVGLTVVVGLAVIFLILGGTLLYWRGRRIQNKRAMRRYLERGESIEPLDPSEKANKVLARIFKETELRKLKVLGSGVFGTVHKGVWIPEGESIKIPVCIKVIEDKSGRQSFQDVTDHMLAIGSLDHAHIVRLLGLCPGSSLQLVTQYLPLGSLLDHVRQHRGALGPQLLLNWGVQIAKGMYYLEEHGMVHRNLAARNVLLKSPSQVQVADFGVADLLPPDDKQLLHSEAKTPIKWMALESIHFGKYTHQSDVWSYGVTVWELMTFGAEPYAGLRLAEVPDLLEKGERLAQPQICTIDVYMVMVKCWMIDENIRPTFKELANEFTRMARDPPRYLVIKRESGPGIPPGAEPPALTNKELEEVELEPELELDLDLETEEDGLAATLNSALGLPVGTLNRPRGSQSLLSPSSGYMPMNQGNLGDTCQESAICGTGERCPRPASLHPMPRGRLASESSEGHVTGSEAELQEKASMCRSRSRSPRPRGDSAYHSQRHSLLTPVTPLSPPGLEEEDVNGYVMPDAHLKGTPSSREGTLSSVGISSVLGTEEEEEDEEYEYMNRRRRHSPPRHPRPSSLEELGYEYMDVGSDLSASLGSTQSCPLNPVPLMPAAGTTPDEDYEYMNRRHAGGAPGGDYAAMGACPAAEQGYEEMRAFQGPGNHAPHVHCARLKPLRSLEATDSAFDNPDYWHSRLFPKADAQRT

T2: monkey (Macaca fascicularis) HER3 on CHO-fasHER3 cells (monkey (Macaca fascicularis), UniProt P21860 20-643 (human entry))
T2 construct: CHO-S cells transfected with fasHER3
T2 chain: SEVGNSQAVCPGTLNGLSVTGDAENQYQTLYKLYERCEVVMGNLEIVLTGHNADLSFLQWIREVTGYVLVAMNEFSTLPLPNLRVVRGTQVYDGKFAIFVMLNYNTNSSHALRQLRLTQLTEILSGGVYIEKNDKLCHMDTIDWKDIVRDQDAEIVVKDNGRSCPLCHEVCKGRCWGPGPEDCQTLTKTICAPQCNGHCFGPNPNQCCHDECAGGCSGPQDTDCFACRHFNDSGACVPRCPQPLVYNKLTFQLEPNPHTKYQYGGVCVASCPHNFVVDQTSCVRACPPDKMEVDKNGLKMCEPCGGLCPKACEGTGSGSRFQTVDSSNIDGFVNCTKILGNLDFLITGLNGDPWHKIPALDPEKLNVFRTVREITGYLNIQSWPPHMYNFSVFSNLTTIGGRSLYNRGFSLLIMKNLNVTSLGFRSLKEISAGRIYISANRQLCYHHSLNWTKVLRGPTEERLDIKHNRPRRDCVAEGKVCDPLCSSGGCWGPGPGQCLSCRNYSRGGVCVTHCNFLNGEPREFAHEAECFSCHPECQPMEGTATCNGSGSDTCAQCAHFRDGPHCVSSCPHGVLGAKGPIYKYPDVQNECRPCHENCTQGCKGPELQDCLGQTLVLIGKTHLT

B1: anti-HER3 antibody 1C5 (antibody, V domains shown)
VH: QVQLVESGGGVVQPGKSLRLSCAASGFTFSRSGMHWVRQAPGKGLEWVALISFDGSNKYYADSVKGRFTISRDNSKNTLNLQMNSLRAEDTAVYYCAKGGFGVVIYDAFDIWGHGTMVTVSS
VL: not shown
notes: common light chain
B2: anti-HER3 antibody 3G6 (antibody, V domains shown)
VH: QVQLVQSGPVLVKPTETLTLTCTVSGFSLSNIRMGVSWIRQPPGKALEWLAHIFSNDDKSYSTSLKSRLTISKDTSKSQVVLTMTNVDPVDTATYYCTRMRYSGGPFDYWGQGTLVTVSS
VL: not shown
notes: common light chain
B3: anti-HER3 antibody 3E1 (antibody, V domains shown)
VH: B2 VH with Q1E, V12A, T63P, S67N, N86T, V87M, V90M, R101K
VL: not shown
notes: common light chain
B4: anti-HER3 antibody 1B2 (antibody, V domains shown)
VH: B2 VH with G26T, I32A, T63P, S78T, V87M, T98S, T114S
VL: not shown
notes: common light chain

What follows are binders tested against T3, human HER2 (hHER2, ACRO Biosystems Inc., Cat #: HE2-H5225), recombinant His-tagged (human, UniProt P04626 23-652) (assay: SPR, Ab captured on Protein A).
T3 construct: Bought protein; not shown: His tag
Experimental: (§1) The cross binding activities of anti-HER3 antibodies to HER family proteins were determined by surface plasmon resonance (SPR) using Biacore (Biacore, INC, Piscataway N.J.) 8K biosensor equipped with pre-immobilized Protein A sensor chips.
(§2) Purified anti-HER3 antibodies were diluted to 2 μg/mL and then injected into the Biacore 8K biosensor at 10 μL/min for about 50 seconds to achieve a desired protein density (e.g., about 200 response units (RU)). […] The association phase lasted for 180 s and the dissociation phase lasted 400 s followed by a regeneration step with Glycine (pH 2.0, 30 μL/min for 30 seconds). For isotype control (ISO), an antibody targeting an irrelevant target protein was used.

binding result	Binder
no binding (tested: 400 nM)	B1
no binding (tested: 400 nM)	B2
no binding (tested: 400 nM)	B3
no binding (tested: 400 nM)	B4

These binders were tested against T4, human EGFR (hEGFR, ACRO Biosystems Inc., Cat #: EGR-H5222), recombinant His-tagged (human, UniProt P00533 25-645) (assay: SPR, Ab captured on Protein A).
T4 construct: Bought protein; not shown: His tag
Experimental: as §1, §2

binding result	Binder
no binding (tested: 400 nM)	B1
no binding (tested: 400 nM)	B2
no binding (tested: 400 nM)	B3
no binding (tested: 400 nM)	B4

Molecular target: T1, dog HER3 on CHO-dHER3 cells
Experiment: flow cytometry, transfected CHO cells
Experimental: (§3) CHO-hHER3 cells, CHO-mHER3 cells, CHO-fasHER3 cells or CHO-dHER3 cells were transferred to a 96-well plate at a density of 5×10⁴ cells/well respectively. The anti-HER3 antibodies were added to the 96-well plate, and incubated at 4° C. for 30 min.

Percentage of Positive Cells [%]	Binder
33.1	B1
29.8	B2
13.2	B3
32.1	B4

These binders were tested against T5, mouse HER3 on CHO-mHER3 cells (mouse, UniProt Q61526 20-641) (assay: flow cytometry, transfected CHO cells).
T5 construct: CHO-S cells transfected with mHER3
T5 sequence (Q61526 20-641): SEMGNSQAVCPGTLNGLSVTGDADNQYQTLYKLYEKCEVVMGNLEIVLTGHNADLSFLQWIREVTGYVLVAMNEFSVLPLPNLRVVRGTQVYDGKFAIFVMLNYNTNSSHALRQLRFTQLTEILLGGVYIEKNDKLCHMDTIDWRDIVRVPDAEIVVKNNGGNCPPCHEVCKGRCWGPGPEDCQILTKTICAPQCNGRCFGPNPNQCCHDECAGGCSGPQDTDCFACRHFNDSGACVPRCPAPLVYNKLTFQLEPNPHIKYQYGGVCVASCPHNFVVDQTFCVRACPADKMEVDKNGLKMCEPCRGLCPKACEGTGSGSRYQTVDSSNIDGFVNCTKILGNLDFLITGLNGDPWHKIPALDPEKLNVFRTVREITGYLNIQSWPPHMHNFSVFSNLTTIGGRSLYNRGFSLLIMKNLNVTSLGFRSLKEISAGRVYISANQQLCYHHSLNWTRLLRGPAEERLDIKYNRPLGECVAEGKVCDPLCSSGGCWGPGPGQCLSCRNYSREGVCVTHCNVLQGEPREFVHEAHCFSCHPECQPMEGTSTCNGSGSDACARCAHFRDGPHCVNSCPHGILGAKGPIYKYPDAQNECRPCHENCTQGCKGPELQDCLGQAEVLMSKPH
Experimental: as §3

Percentage of Positive Cells [%]	binding result	Binder
3.4	no binding	B1
15.2	–	B2
23	–	B3
22.4	–	B4

Each binder was assayed against T6, human HER3 on CHO-hHER3 cells (human, UniProt P21860 20-643) (assay: flow cytometry, transfected CHO cells).
T6 construct: CHO-S cells transfected with hHER3
Experimental: as §3

Percentage of Positive Cells [%]	Binder
74	B1
66.5	B2
70.6	B3
71.3	B4

Molecular target: T2, monkey (Macaca fascicularis) HER3 on …
Experiment: flow cytometry, transfected CHO cells
Experimental: as §3

Percentage of Positive Cells [%]	Binder
72.8	B1
65.6	B2
69.4	B3
69	B4
